In data set [1] the test system is HeLa Kyoto. In words: solubility in G1/S (NP-40 vs SDS abundance) (log2 ratio); higher = more soluble. The conditions noted are these: cell cycle stage: G1/S.
Data set [2] deals with HeLa Kyoto. In words: melting temperature (median over replicates), in situ; higher = more thermally stable.
The subject of data set [3] is HeLa Kyoto. In words: solubility change mitosis vs G1/S (difference of NP-40 vs SDS log2 ratios) (log2 ratio difference); higher = more soluble in mitosis.
Data set [4] concerns HeLa Kyoto. In words: thermal stability score vs G1/S (z-score of summed log2 fold changes over temperatures); higher = more thermally stable than in G1/S.
The mark [5] stands for this setting: cell cycle stage: early G1 (4.5 h after nocodazole release).

These results are taken from the supplement of paper PMC5998384.
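For melting temperature (median over replicates), in situ in this document: HeLa Kyoto cells synchronized by double thymidine or nocodazole block, proteins quantified by TMT10plex mass spectrometry, three independent biological replicates.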
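For solubility change mitosis vs G1/S (difference of NP-40 vs SDS log2 ratios) in this document: synchronized HeLa Kyoto cells (double thymidine block for G1/S, nocodazole release for mitosis), protein amounts in NP-40 versus SDS lysates quantified by mass spectrometry, three biological replicates.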
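For solubility in G1/S (NP-40 vs SDS abundance) in this document: HeLa Kyoto cells arrested at G1/S by double thymidine block, proteins quantified by TMT10plex mass spectrometry in mild NP-40 versus SDS extracts, three biological replicates.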
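For thermal stability score vs G1/S (z-score of summed log2 fold changes over temperatures) in this document: synchronized HeLa Kyoto cells, proteins quantified by TMT10plex mass spectrometry, three biological replicates, mitosis taken 0.5 h after nocodazole release, G1/S directly after double thymidine block.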

As to “MEVNPPKQEHLLALKVMRLTKPTLFTNIPVTCEEKDLPGDLFNQLMRDDPSTVNGAEVLMLGEMLTLPQNFGNIFLGETFSSYISVHNDSNQVVKDILVKADLQTSSQRLNLSASNAAVAELKPDCCIDDVIHHEVKEIGTHILVCAVSYTTQAGEKMYFRKFFKFQVLKPLDVKTKFYNAESDLSSVTDEVFLEAQIQNMTTSPMFMEKVSLEPSIMYNVTELNSVSQAGECVSTFGSRAYLQPMDTRQYLYCLKPKNEFAEKAGIIKGVTVIGKLDIVWKTNLGERGRLQTSQLQRMAPGYGDVRLSLEAIPDTVNLEEPFHITCKITNCSERTMDLVLEMCNTNSIHWCGISGRQLGKLHPSSSLCLALTLLSSVQGLQSISGLRLTDTFLKRTYEYDDIAQVCVVSSAIKVES [TRAPPC13]”, the “solubility in G1/S (log2)” value with HeLa Kyoto [1] was determined as 0.0799. Also, the melting temperature in the data set with HeLa Kyoto [2] (cell cycle stage: G1/S) was 50 °C; in the data set with HeLa Kyoto [2] (cell cycle stage: mitosis), 49.9 °C. Besides, in the data set with HeLa Kyoto [3], the “solubility change mitosis (log2)” value was -0.173. The thermal stability score in the data set with HeLa Kyoto [4] (setting [5]) was -0.207; in the data set with HeLa Kyoto [4] (cell cycle stage: mitosis), 0.0312.

For “MEVPAAGRVPAEGAPTAAVAEVRCPGPAPLRLLEWRVAAGAAVRIGSVLAVFEAAASAQSSGASQSRVASGGCVRPARPERRLRSERAGVVRELCAQPGQVVAPGAVLVRLEGCSHPVVMKGLCAECGQDLTQLQSKNGKQQVPLSTATVSMVHSVPELMVSSEQAEQLGREDQQRLHRNRKLVLMVDLDQTLIHTTEQHCQQMSNKGIFHFQLGRGEPMLHTRLRPHCKDFLEKIAKLYELHVFTFGSRLYAHTIAGFLDPEKKLFSHRILSRDECIDPFSKTGNLRNLFPCGDSMVCIIDDREDVWKFAPNLITVKKYVYFQGTGDMNAPPGSRESQTRKKVNHSRGTEVSEPSPPVRDPEGVTQAPGVEPSNGLEKPARELNGSEAATPRDSPRPGKPDERDIWPPAQAPTSSQELAGAPEPQGSCAQGGRVAPGQRPAQGATGTDLDFDLSSDSESSSESEGTKSSSSASDGESEGKRGRQKPKAAPEGAGALAQGSSLEPGRPAAPSLPGEAEPGAHAPDKEPELGGQEEGERDGLCGLGNGCADRKEAETESQNSELSGVTAGESLDQSMEEEEEEDTDEDDHLIYLEEILVRVHTDYYAKYDRYLNKEIEEAPDIRKIVPELKSKVLADVAIIFSGLHPTNFPIEKTREHYHATALGAKILTRLVLSPDAPDRATHLIAARAGTEKVLQAQECGHLHVVNPDWLWSCLERWDKVEEQLFPLRDDHTKAQRENSPAAFPDREGVPPTALFHPMPVLPKAQPGPEVRIYDSNTGKLIRTGARGPPAPSSSLPIRQEPSSFRAVPPPQPQMFGEELPDAQDGEQPGPSRRKRQPSMSETMPLYTLCKEDLESMDKEVDDILGEGSDDSDSEKRRPEEQEEEPQPRKPGTRRERTLGAPASSERSAAGGRGPRGHKRKLNEEDAASESSRESSNEDEGSSSEADEMAKALEAELNDLM [CTDP1]”, the “solubility in G1/S (log2)” value in the data set with HeLa Kyoto [1] is 0.0911. For the same sequence, the melting temperature in the data set with HeLa Kyoto [2] (cell cycle stage: G1/S) came out at 49.2 °C; in the data set on HeLa Kyoto [2] (cell cycle stage: mitosis) it was 50.6 °C. Besides, the “solubility change mitosis (log2)” value with HeLa Kyoto [3] was -0.102. The thermal stability score in the data set with HeLa Kyoto [4] (setting [5]) turned out to be 1.52; in the data set on HeLa Kyoto [4] (cell cycle stage: mitosis), 2.78.

Consider “MEVTGVSAPTVTVFISSSLNTFRSEKRYSRSLTIAEFKCKLELLVGSPASCMELELYGVDDKFYSKLDQEDALLGSYPVDDGCRIHVIDHSGARLGEYEDVSRVEKYTISQEAYDQRQDTVRSFLKRSKLGRYNEEERAQQEAEAAQRLAEEKAQASSIPVGSRCEVRAAGQSPRRGTVMYVGLTDFKPGYWIGVRYDEPLGKNDGSVNGKRYFECQAKYGAFVKPAVVTVGDFPEEDYGLDEI [TBCB]”, for which the “solubility in G1/S (log2)” value in the data set with HeLa Kyoto [1] was 0.266. In addition, the melting temperature in the data set on HeLa Kyoto [2] (cell cycle stage: G1/S) came to 49.5 °C; in the data set on HeLa Kyoto [2] (cell cycle stage: mitosis), 50.2 °C. The “solubility change mitosis (log2)” value with HeLa Kyoto [3] was 0.119. Also, the thermal stability score is -0.00262 in the data set with HeLa Kyoto [4] (setting [5]) and 0.00665 in the data set on HeLa Kyoto [4] (cell cycle stage: mitosis).

“MFAEAAKTTRPCGMAEFKEKPEAPTEQLDVACGQENLPVGAWPPGAAPAPFQYTPDHVVGPGADIDPTQITFPGCICVKTPCLPGTCSCLRHGENYDDNSCLRDIGSGGKYAEPVFECNVLCRCSDHCRNRVVQKGLQFHFQVFKTHKKGWGLRTLEFIPKGRFVCEYAGEVLGFSEVQRRIHLQTKSDSNYIIAIREHVYNGQVMETFVDPTYIGNIGRFLNHSCEPNLLMIPVRIDSMVPKLALFAAKDIVPEEELSYDYSGRYLNLTVSEDKERLDHGKLRKPCYCGAKSCTAFLPFDSSLYCPVEKSNISCGNEKEPSMCGSAPSVFPSCKRLTLETMKMMLDKKQIRAIFLFEFKMGRKAAETTRNINNAFGPGTANERTVQWWFKKFCKGDESLEDEERSGRPSEVDNDQLRAIIEADPLTTTREVAEELNVNHSTVVRHLKQIGKVKKLDKWVPHELTENQKNRRFEVSSSLILRNHNEPFLDRIVTCDEKWILYDNRRRSAQWLDQEEAPKHFPKPILHPKKVMVTIWWSAAGLIHYSFLNPGETITSEKYAQEIDEMNQKLQRLQLALVNRKGPILLHDNARPHVAQPTLQKLNELGYEVLPHPPYSPDLLPTNYHVFKHLNNFLQGKRFHNQQDAENAFQEFVESQSTDFYATGINQLISRWQKCVDCNGSYFD [SETMAR]”: the “solubility in G1/S (log2)” value with HeLa Kyoto [1] is -0.0719. In addition, the results for the melting temperature in the data set on HeLa Kyoto [2] (cell cycle stage: G1/S) and with HeLa Kyoto [2] (cell cycle stage: mitosis) were 51.9 °C and 51.7 °C, respectively. The “solubility change mitosis (log2)” value in the data set with HeLa Kyoto [3] is -0.0662. Further, the results for the thermal stability score in the data set with HeLa Kyoto [4] (setting [5]) and in the data set on HeLa Kyoto [4] (cell cycle stage: mitosis) were 1.42 and 0.689, respectively.
